In the supplement of paper PMC10567573:

B1: CHIT1 (parent)
chain: CSWKGATKQRIQDQKVPYIFRDNQ
B2: ATL3 (parent)
chain: QELEEEIKELYENFCKHNGSKNVF

Variants of: B1
Test: protein stability index of a GFP-peptide fusion (GPS, HEK-293T) (PSI 1-6); higher = more stable
Conditions: c terminus: a fixed tail appended
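Note: lentivirally expressed fusions sorted by FACS into six bins by GFP to DsRed ratio, PSI derived from sequencing read proportions per bin multiplied by bin number.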

Q: For CSWKGATKQRIQDQKVPYIFRDKQ [N23K], which protein stability index is on record?
A: The protein stability index was 3.05.

Q: For CSWKGATKQRIQDQKVPYIFRDEQ [N23E], which protein stability index is on record?
A: The protein stability index was 2.54.

Q: With CSWKGATKQRIQDQKVPYIFRDLQ [N23L] as the variant, how does the protein stability index read?
A: Its protein stability index is 1.89.

Q: With CSWKGATKQRIQDQKVPYIFRDVQ [N23V] as the variant, how does the protein stability index read?
A: Its protein stability index is 1.67.

Q: Which protein stability index does the source give for CSWKGATKQRIQDQKVPYIFRDIQ [N23I] here?
A: Its protein stability index is 2.56.

Q: For CSWKGATKQRIQDQKVPYIFRDHQ [N23H], which protein stability index is on record?
A: Its protein stability index is 1.99.

Q: Which protein stability index does the source give for CSWKGATKQRIQDQKVPYIFRDFQ [N23F] here?
A: Its protein stability index is 2.04.

Q: For CSWKGATKQRIQDQKVPYIFRDYQ [N23Y], which protein stability index is on record?
A: The protein stability index was 2.11.

Q: Which protein stability index does the source give for CSWKGATKQRIQDQKVPYIFRDAQ [N23A] here?
A: Its protein stability index is 2.76.

Q: With CSWKGATKQRIQDQKVPYIFRDWQ [N23W] as the variant, how does the protein stability index read?
A: The protein stability index was 1.62.

Q: For CSWKGATKQRIQDQKVPYIFRDQQ [N23Q], which protein stability index is on record?
A: The protein stability index was 2.6.

Q: With CSWKGATKQRIQDQKVPYIFRDCQ [N23C] as the variant, how does the protein stability index read?
A: The protein stability index was 1.91.

Q: Which protein stability index does the source give for CSWKGATKQRIQDQKVPYIFRDPQ [N23P] here?
A: Its protein stability index is 2.38.

Q: For CSWKGATKQRIQDQKVPYIFRDSQ [N23S], which protein stability index is on record?
A: Its protein stability index is 2.2.

Q: Which protein stability index does the source give for CSWKGATKQRIQDQKVPYIFRDRQ [N23R] here?
A: The protein stability index was 2.82.

Q: For CSWKGATKQRIQDQKVPYIFRDDQ [N23D], which protein stability index is on record?
A: The protein stability index was 3.53.

Q: For CSWKGATKQRIQDQKVPYIFRDND [Q24D], which protein stability index is on record?
A: The protein stability index was 3.34.

Q: For CSWKGATKQRIQDQKVPYIFRDNI [Q24I], which protein stability index is on record?
A: Its protein stability index is 2.85.

Q: Which protein stability index does the source give for CSWKGATKQRIQDQKVPYIFRDNH [Q24H] here?
A: The protein stability index was 2.06.

Q: With CSWKGATKQRIQDQKVPYIFRDNL [Q24L] as the variant, how does the protein stability index read?
A: Its protein stability index is 2.31.

Q: For CSWKGATKQRIQDQKVPYIFRDNN [Q24N], which protein stability index is on record?
A: The protein stability index was 2.45.

Q: With CSWKGATKQRIQDQKVPYIFRDNG [Q24G] as the variant, how does the protein stability index read?
A: Its protein stability index is 2.18.

Q: With CSWKGATKQRIQDQKVPYIFRDNA [Q24A] as the variant, how does the protein stability index read?
A: Its protein stability index is 2.29.

Q: Which protein stability index does the source give for CSWKGATKQRIQDQKVPYIFRDNS [Q24S] here?
A: Its protein stability index is 2.82.

Q: With CSWKGATKQRIQDQKVPYIFRDNV [Q24V] as the variant, how does the protein stability index read?
A: The protein stability index was 2.16.

Q: Which protein stability index does the source give for CSWKGATKQRIQDQKVPYIFRDNY [Q24Y] here?
A: The protein stability index was 1.61.

Q: Which protein stability index does the source give for CSWKGATKQRIQDQKVPYIFRDNT [Q24T] here?
A: The protein stability index was 2.75.

Q: Which protein stability index does the source give for CSWKGATKQRIQDQKVPYIFRDNC [Q24C] here?
A: The protein stability index was 3.02.

Q: For CSWKGATKQRIQDQKVPYIFRDNE [Q24E], which protein stability index is on record?
A: Its protein stability index is 4.3.

Q: Which protein stability index does the source give for CSWKGATKQRIQDQKVPYIFRDNP [Q24P] here?
A: Its protein stability index is 2.48.

Q: For CSWKGATKQRIQDQKVPYIFRDNW [Q24W], which protein stability index is on record?
A: The protein stability index was 1.3.

Q: For CSWKGATKQRIQDQKVPYIFRDNM [Q24M], which protein stability index is on record?
A: Its protein stability index is 1.92.

Q: For CSWKGATKQRIQDQKVPYIFRDNF [Q24F], which protein stability index is on record?
A: The protein stability index was 2.01.

Q: For CSWKGATKQRIQDQKVPYIFRDNK [Q24K], which protein stability index is on record?
A: Its protein stability index is 3.16.

Q: With CSWKGATKQRIQDQKVPYIFRTNQ [D22T] as the variant, how does the protein stability index read?
A: Its protein stability index is 2.18.

Q: With CSWKGATKQRIQDQKVPYIFRSNQ [D22S] as the variant, how does the protein stability index read?
A: The protein stability index was 2.42.

Q: With CSWKGATKQRIQDQKVPYIFRQNQ [D22Q] as the variant, how does the protein stability index read?
A: Its protein stability index is 2.33.

Q: For CSWKGATKQRIQDQKVPYIFRVNQ [D22V], which protein stability index is on record?
A: Its protein stability index is 1.83.

Q: For CSWKGATKQRIQDQKVPYIFRWNQ [D22W], which protein stability index is on record?
A: Its protein stability index is 1.6.

Q: For CSWKGATKQRIQDQKVPYIFRRNQ [D22R], which protein stability index is on record?
A: The protein stability index was 2.66.

Variants of: B2
Test: as above
Conditions: c terminus: a fixed tail appended

Q: Which protein stability index does the source give for QFLEEEIKELYENFCKHNGSKNVF [E2F] here?
A: Its protein stability index is 2.57.

Q: Which protein stability index does the source give for QYLEEEIKELYENFCKHNGSKNVF [E2Y] here?
A: The protein stability index was 2.47.

Q: Which protein stability index does the source give for QDLEEEIKELYENFCKHNGSKNVF [E2D] here?
A: Its protein stability index is 3.03.

Q: Which protein stability index does the source give for QLLEEEIKELYENFCKHNGSKNVF [E2L] here?
A: Its protein stability index is 2.21.

Q: With QCLEEEIKELYENFCKHNGSKNVF [E2C] as the variant, how does the protein stability index read?
A: The protein stability index was 2.65.

Q: For QWLEEEIKELYENFCKHNGSKNVF [E2W], which protein stability index is on record?
A: The protein stability index was 1.9.

Q: For QNLEEEIKELYENFCKHNGSKNVF [E2N], which protein stability index is on record?
A: Its protein stability index is 3.65.

Q: With QHLEEEIKELYENFCKHNGSKNVF [E2H] as the variant, how does the protein stability index read?
A: The protein stability index was 2.62.

Q: Which protein stability index does the source give for QALEEEIKELYENFCKHNGSKNVF [E2A] here?
A: The protein stability index was 2.38.

Q: With QTLEEEIKELYENFCKHNGSKNVF [E2T] as the variant, how does the protein stability index read?
A: The protein stability index was 3.43.

Q: With QRLEEEIKELYENFCKHNGSKNVF [E2R] as the variant, how does the protein stability index read?
A: The protein stability index was 2.8.

Q: Which protein stability index does the source give for QILEEEIKELYENFCKHNGSKNVF [E2I] here?
A: Its protein stability index is 2.36.

Q: Which protein stability index does the source give for QPLEEEIKELYENFCKHNGSKNVF [E2P] here?
A: The protein stability index was 3.68.

Q: With QGLEEEIKELYENFCKHNGSKNVF [E2G] as the variant, how does the protein stability index read?
A: Its protein stability index is 3.14.

Q: Which protein stability index does the source give for QMLEEEIKELYENFCKHNGSKNVF [E2M] here?
A: The protein stability index was 2.54.

Q: Which protein stability index does the source give for QKLEEEIKELYENFCKHNGSKNVF [E2K] here?
A: Its protein stability index is 3.3.

Q: With QVLEEEIKELYENFCKHNGSKNVF [E2V] as the variant, how does the protein stability index read?
A: The protein stability index was 2.3.

Q: With QQLEEEIKELYENFCKHNGSKNVF [E2Q] as the variant, how does the protein stability index read?
A: Its protein stability index is 2.52.

Q: For QSLEEEIKELYENFCKHNGSKNVF [E2S], which protein stability index is on record?
A: The protein stability index was 2.97.

Q: Which protein stability index does the source give for QELEFEIKELYENFCKHNGSKNVF [E5F] here?
A: The protein stability index was 2.27.

Q: With QELEPEIKELYENFCKHNGSKNVF [E5P] as the variant, how does the protein stability index read?
A: Its protein stability index is 3.85.

Q: With QELEHEIKELYENFCKHNGSKNVF [E5H] as the variant, how does the protein stability index read?
A: Its protein stability index is 2.42.

Q: For QELETEIKELYENFCKHNGSKNVF [E5T], which protein stability index is on record?
A: Its protein stability index is 2.45.

Q: With QELEQEIKELYENFCKHNGSKNVF [E5Q] as the variant, how does the protein stability index read?
A: Its protein stability index is 1.81.

Q: For QELEAEIKELYENFCKHNGSKNVF [E5A], which protein stability index is on record?
A: Its protein stability index is 1.96.

Q: Which protein stability index does the source give for QELEREIKELYENFCKHNGSKNVF [E5R] here?
A: The protein stability index was 2.02.

Q: Which protein stability index does the source give for QELEWEIKELYENFCKHNGSKNVF [E5W] here?
A: The protein stability index was 1.73.

Q: Which protein stability index does the source give for QELEDEIKELYENFCKHNGSKNVF [E5D] here?
A: Its protein stability index is 3.27.

Q: Which protein stability index does the source give for QELESEIKELYENFCKHNGSKNVF [E5S] here?
A: The protein stability index was 2.17.

Q: For QELEGEIKELYENFCKHNGSKNVF [E5G], which protein stability index is on record?
A: The protein stability index was 3.25.

Q: With QELEVEIKELYENFCKHNGSKNVF [E5V] as the variant, how does the protein stability index read?
A: Its protein stability index is 2.15.

Q: Which protein stability index does the source give for QELEYEIKELYENFCKHNGSKNVF [E5Y] here?
A: Its protein stability index is 1.9.

Q: Which protein stability index does the source give for QELENEIKELYENFCKHNGSKNVF [E5N] here?
A: The protein stability index was 2.51.

Q: For QELELEIKELYENFCKHNGSKNVF [E5L], which protein stability index is on record?
A: Its protein stability index is 2.23.

Q: Which protein stability index does the source give for QELECEIKELYENFCKHNGSKNVF [E5C] here?
A: The protein stability index was 2.33.

Q: For QELEIEIKELYENFCKHNGSKNVF [E5I], which protein stability index is on record?
A: Its protein stability index is 1.8.

Q: For QELEKEIKELYENFCKHNGSKNVF [E5K], which protein stability index is on record?
A: The protein stability index was 2.21.

Q: With QELEMEIKELYENFCKHNGSKNVF [E5M] as the variant, how does the protein stability index read?
A: Its protein stability index is 2.81.

Q: Which protein stability index does the source give for QELEEEQKELYENFCKHNGSKNVF [I7Q] here?
A: Its protein stability index is 4.5.

Q: Which protein stability index does the source give for QELEEEAKELYENFCKHNGSKNVF [I7A] here?
A: Its protein stability index is 4.55.

Q: With QELEEELKELYENFCKHNGSKNVF [I7L] as the variant, how does the protein stability index read?
A: The protein stability index was 3.03.

Q: Which protein stability index does the source give for QELEEESKELYENFCKHNGSKNVF [I7S] here?
A: The protein stability index was 4.09.

Q: With QELEEEMKELYENFCKHNGSKNVF [I7M] as the variant, how does the protein stability index read?
A: The protein stability index was 3.8.

Q: With QELEEEWKELYENFCKHNGSKNVF [I7W] as the variant, how does the protein stability index read?
A: Its protein stability index is 2.26.

Q: With QELEEEFKELYENFCKHNGSKNVF [I7F] as the variant, how does the protein stability index read?
A: The protein stability index was 3.49.

Q: For QELEEEPKELYENFCKHNGSKNVF [I7P], which protein stability index is on record?
A: The protein stability index was 4.5.

Q: With QELEEENKELYENFCKHNGSKNVF [I7N] as the variant, how does the protein stability index read?
A: The protein stability index was 4.52.

Q: Which protein stability index does the source give for QELEEEHKELYENFCKHNGSKNVF [I7H] here?
A: Its protein stability index is 4.28.

Q: For QELEEECKELYENFCKHNGSKNVF [I7C], which protein stability index is on record?
A: Its protein stability index is 4.23.

Q: With QELEEEYKELYENFCKHNGSKNVF [I7Y] as the variant, how does the protein stability index read?
A: The protein stability index was 4.21.

Q: Which protein stability index does the source give for QELEEEDKELYENFCKHNGSKNVF [I7D] here?
A: Its protein stability index is 4.81.

Q: For QELEEEVKELYENFCKHNGSKNVF [I7V], which protein stability index is on record?
A: Its protein stability index is 3.75.

Q: For QELEEEKKELYENFCKHNGSKNVF [I7K], which protein stability index is on record?
A: The protein stability index was 4.71.

Q: For QELEEEEKELYENFCKHNGSKNVF [I7E], which protein stability index is on record?
A: Its protein stability index is 4.94.
